Assay: yeast display, Sf9 membrane polyspecificity reagent, FACS + sequencing; frameworks hold sequencing errors
Procedure, shortened: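 After 36–48 hours of galactose induction, yeast (Saccharomyces cerevisiae BJ5465) displaying a synthetic nanobody library were stained at 4 °C for 1 hour with 10% biotinylated, detergent-solubilized Sf9 membrane reagent. Streptavidin microbeads enriched the stained cells before FACS sorting into low and high (top ~1%) gates on anti-HA and streptavidin fluorescence. Each clone's polyreactivity label reflects its gate of origin.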

| Sequence | polyreactivity (PSR sort gate) |
| --- | --- |
| QVQLVESGGGIVQAGGSLRLSCAASGFISYRNAMGWDRMAPGKERELVASITSSGGRTYYADSVKGRFTISRDNAKNTVYLQMNSLKPEDTAVYDWAADNWYKKQKRPSAYDYWGQGTQVSVSS | high polyreactivity |
| QVQLVESGGGLVQAGGSLRLSCAASGSTFWWYAMGWYRQAPGKDRELVAASSYSGSSTYYADSVKGRFTISRDNAKNTVYLQMNSLKPEDTAVYYCAADIQYYYNYYPGDYWGQGTQVTVSS | low polyreactivity |
| QVQLVESGGGLVQAGGSLRLSCPASGRTFRYYAMGWYRQAPGKERELVAAITANGGSTFYADSVKGRFTISRDNAKNTVYLQMNSLKPEDTAVYYCAARFYTSSRYNYWGQGTQVTVSS | high polyreactivity |
| QVQLVESGGGLVHAGGSLRLSCAASGRIFQYYAMGWYRQAPGKERELVAAIDQSGDTTYYADSVKGRFTISRDNAKNTVYLQMNSLKPEDTAVFYCAAGYDWAYHWVPQWMYFWGQGTQVTVSS | low polyreactivity |
| QVQLVESGGGLVQAGGSLRLSCAASGSTFSQYAMGWYRQAPGKERELVAAITRGGRTYYADSVKGRFTISRDNAKNTVYLQMNSLKPEDTAVYYCNAVLGLLYGYDYWGQGTQVTVSS | high polyreactivity |
| QVQLVESGGGLVQAGGSLRLSCAASGFIFQKYAMGWYRQAPGKERELVAAISRSGGSTYYADSVKGRFTISRDNAKNTVYLQMNSLKPEDTAVYYCNAVYSTSRDYWGQGTQVTVSS | high polyreactivity |
| QVQLVESGGGLVQAGGSLRLSCAASGSTFTRYAMGWYRQAPGKERELVAAISSGGSTYADSVKGRFTISRDNAKNTVYLQMNSLKPEDTAVYYCAARLYTYPKGKYWGQGTQVTVSS | high polyreactivity |
| QVLLVESGGGLVQAGGSLSLSCAASGRTFFNNAMGWYRQAPGQEREFVAAISRSGSSTYYAVSVKGRFTISRDNAKNTVYLQMNSLKPEHTAVYYCASYLYYYSAYGYWGQGTQVTVSS | high polyreactivity |
| QVQLVESGGGLVQAGGSLRLSCAASGSTFPFYVMGWYRQAPGKERELVASIRGTGGNTYYADSVKGRFTISRDNAKNTVYLQMNSLKPEDTAVYYCNAVYRLSHYDLDYWGQGTQVTVSS | high polyreactivity |
| QVQLVESGGGLVHAGGSLRLSCAASGRICGPYVMGWYRQAPGKERELVASITSSGGSPYYADSVKGRFTISRDNAKNTVYLQMNSLKPEDTAVYYWGQGTQVSVSS | low polyreactivity |
| QVQLVESGGGLVQAGGSLRLSCAASGSTFGAYAMGWYRQAPGKERELVAAISKRGGSTYYADSVKGRFTISLDNAKNTVYLQMNSLKPEDTAVYYCATDHFSPTYGYWGQGTQVTVSS | low polyreactivity |
| QVQLVESGGGLVQAGGSLRLSCAASGRTFPSYAMGWYRQAPGKERELVAVIRGGGSTKYADSVKGRFTISRDNAKNTVYLQMNSLKPEDTAVYYCATRGYPKFNYIYYYWGQGTQVTVSS | high polyreactivity |
| QVQLVESGGGLVQAGGSLRLSCAASGSTFRSYAMGWYRQAPGKERELVAAITWRGGSTDYADSVKGRFTISRDNAKNTVYLQMNSLKPEDTAVYYCAAAIWGDYGAYDYWGQGTQVTVSS | low polyreactivity |
| QVHLVESGGGLVQAGGSLRLSCAASGLILSYNAMAWYRQAPGKERELDAAISYSGGSTYYADSVKGRFTITRDNAKNTVYLQMNSLITEDSAVYYCAAVWRRQGSAYLGSYGYDYWGQVTQVTVSS | high polyreactivity |
| QVQHVESGGGLVQPGGSLRLSCAASGNAMGWYRQAPGKERELVASINRSGGRTYYADSVKGSYTISRDNAKNTVYLQMNSLKPEDTAVYYCAARPHYDSDYWGQGTQVTVSS | low polyreactivity |
| QVQLVESGGGLVQAGGSLRLSCAASGSIFRAYVMGWYRQAPGKERELVAAISRGGSTNYADSVKGRFTISRDNAKNTVYLQMNSLKPEDSAVYYCAADWYFYSMYDEVEYWGQGTQVTVSS | low polyreactivity |
| QVQLVESGGGLVQAGGSLRLSCAASGFTFRYYVMGWYRQAPGKERELVAAITSGGRTHYADSVKGRFTISRDNAKNTDYLQMNSLKPEDTAVYYCAVRTQFAGLHYYYGYWGQGTQVTVSS | high polyreactivity |
| QVQLVESGGGLVQAGGSLRLSCAASGSTFDRYAMGWYRQAPGNERELVAAISSSGGTTYYADSVKGRFTITRDNAKTTVYVQMNSLKPEDTAVYYCAAVRYYESRGGYDYWGQGPQVTVSS | low polyreactivity |
| QVQLVESVGGLVQAGGSLRLSCAASGRIFLIYSMGWYRQAPGKERELVADISKGGSSTYYADSVKGRFTISRDNAKNTVYLQMNSLKPEDSAVYYCAASGRWTGRQAAYDYWGQGTQVTVSS | high polyreactivity |
| QVQLVESGGGLVQAGGSLRLSCAASGSIFTVYGMGWYRQAPGKERELVAAISRSGGSTYYADSVKGRFTISRDNAKNTVYLLMNSLKPEDTAVYYCAADVYRTWFWWFDYWGQGTQVTVSS | high polyreactivity |
| QVQLVESGGGLVQAGGSLRLSCAASGSIFDVNGMGWYRQAPGKERELVATISSDGSTNYADSVKGRFTISRDNAKNTVYLQMNSLKPEDTAVYYCAADRHQVSVISTEVYWGQGTQVTVSS | low polyreactivity |
| QVQLVESGGGLVQAGGSLRLSCAASGSTFFGNTMGWYRQAPGKERELVAAISRRGGSTYYADSVKGRFTISRDNAKNTVYLQMTSLIPEDTAVYYCAKYYQSGGYTPGKYDYWGQGTQVTVSS | high polyreactivity |

| Sequence | polyreactivity (PSR sort gate) |
| --- | --- |
| QVQLVESGGGLVPAGGSLRLSCAASGSIFGFYAMGWYRQSPGKERELVAGISYGDSSTYYADSVKGSFTISRDNAKNTVYLQMNSLKPEDTAVYYCAAGHRQKYNWGRYDYWGQGTQVTVSS | low polyreactivity |
| QVQLVESGGGLVQAGGSLLLSCAASGITFPKYAMGWYRQAPGKERELVAAITKSGGSTYYADSVKGRFTISRDHAKNTVYFQMNSLKPEDTAVYYYAARPRYGEYDYWGQGTQVTVSS | high polyreactivity |
| QDQLVESGGGLVQAGGSLRLSCAASGRIFKHNAMGWYRQAPGKERELVATISIAGRTNYADSVKGRFTISRDNAKNTVYLQMNSLKPEDTAVYYCAASTFFIHTYDYWGQGTQVTVSS | low polyreactivity |
| QVQLVESGGCLVQAGGSLRLSCAASGFIFRRYALGWNRQAPGKERELVAAISSSGGRTTYADSVKGRFTISRDNAKNTVYLQMNSLKPEDTAVYYCNADLCPGNHDGYWGQGTQVTVSS | low polyreactivity |
| QVQHVESGGGLVQAGGSLRLSGAAYGRTFLYNAKGWNIQAPGKERELVAVISKRGGRTYYADSVKGRFTISRDNAKNTVYLQMKSLKPEDTAVYYCGAAYVTPPGPLRYNEYYWGQGSQVTVSS | high polyreactivity |
| QVQLVESGGGLVQAGGSLRLSCAASGIIFRYYAMGWYRQAPGKERELVAAITSRGGSTYYADSVKGRFTISRDNAKNTVYLQMNSLKPEDTAVYYCATAYYYFSTSRADGEYWGQGTQVTVSS | high polyreactivity |
| QVQLVESGGGLVQAGGSLRLSCAASGFTFAHNAMGWYRQATGKERELVAVISWSGGRTYYADSVKGRFTISRDNAMNTVYLQMNSLKPEDTAVYYCATRHSKFSYGYWGQGTQVTVSS | high polyreactivity |
| QVQLVESGGGLVQAGGSLRLISAASGSTFRHYALGWNRQAPGKERELVAAISSTGGSTYYADSVKGRFTISRDNAKNTVYLQMNSLKPEDTAVFYCAARRLYWGQGTQVTVSS | high polyreactivity |
| QVQLVESGGGLVQAGGSLRLSCAASGLTCGKYAMGWYRQAPGKERELVAAINSSGGSTYYADSVKGRFTISRDNAKNTVYLQMNSLKPEDTAVYYCAVAVYRLIYFEYNYWGQGTQVTVSS | low polyreactivity |
| QVQLVESGGGLVQAGGSLRLSCAASGSTFVWNAMGWYRQAPGQERELVAAITWSGGSTYYADSVKGRFTISRDNAKNTVYLQMNSLIPEDTAVYYGNAGPVVRRWDAVGYDYWGQGTQVTVSS | low polyreactivity |
| QVQLVESGGGLVQAGGSRRLSCAASGRSFTRYAMGWYRQAPGKERVLVAAITSSGRTYYADSVKGRFTISRDNAKNTVYLQMNRLKPEDTAVYYCAKYRANALNYANRGAGDYWGQGTQVTVSS | high polyreactivity |
| QVQLVESGGGLVQAGGSLRLSCAASGSILGYNAMGWYRQAPGKEREFVAAITYSGGTTYYADSVKGRFTISRDNAKNTVYLQMNSLKPEDTAVYYCAADYSVYDEFDYWGQGTQVTVSS | high polyreactivity |
| RVQLQESGGGLVQAGGSLRLSCEASGTIFIRGDMGWYRQATGKEREFVATIDTGSNTYYADSEKGRFTISRDNAKNAVYLQMNCLKPGDTAVYYCVVDYQLSGRLRYWGQGTQVTLSS | low polyreactivity |
| QVQLVESGGCLVQAGGSRRLSCDASVRIVPVYAMGWYRQAHGNERELVAAISQSGGSTYADSVKGRFTISRDNAKNTVYLQMNSLKPEDTAVYYCAARYWKWRPAYEYWGPGTQVTVSS | high polyreactivity |
| QVQLVESGGGLVQAGGSLRLSCAASGFTISYYAMGWYRQAPWKERELVASISSSGGRTYYADSVKGRFTISRDNAKNTVYLQMNSLKPEDTAVYYCAAVGGRSTRGYYWGQGTQVTVSS | high polyreactivity |
| QVQLVESRAGLVQAGGSLRLSCAASGNIFDIYAMGWYRQAPGKERELVAAISSGGSTYYADSVKGRFTISRDNAKNTVYLQLNSLKPEDTAVYYCAESRVGYYRYEYWGQGNQVTVSS | low polyreactivity |
| QVQLVESGGGLVQAGGSLRLSCAASGRTFLQYAMGWYRQAPGKERELVATISFSGGSTYADSVKGRFTISRDNAKNTVYLQMNSLKPEDTAVYYCNAGIRYFVVGRSSYDYWGQGTQVTVSS | low polyreactivity |
| QVQLVESGGGLVQAGGSLRLSCAASAFIFRFYTMGWYRQATGKETELVAAITSRGDRTYYADSVKRRFTISRENAKNPVYLQMNSLKPEDTAVYYCAKATRGYRSPYGSIGYYYRGQGTQVTVSS | high polyreactivity |
| QVQLVESGGGLVQAGGSLRLSCAASGRTFTKYAMGWYRQAPGKERELVATIRGRGGSTYYADSVKGRFTISRDNAKYTVYLQMNSLKPEDTAVYYCAADYWFSSRKYDYWGQGTQVTVSS | high polyreactivity |
| QVQLVDSGGGLDQAGGSLRLSCAASGSTFYYNAMGWYRQPPGKARELVARISRSGGSTYADSVKGRFTISRDNAMNTVYLQMNSLKPEDTAVYYCNADADGTPEFTSYSVRYDYWGQGSQVTVSS | low polyreactivity |
| QVQLVESGGRLVQAGGSLRLSCAASGITFDLYDMGWYRQAPGKVRELVAAITDADSTYYADSVKGRFTMSRDNEKNTVKLQMTSLIPEDTAVYYCAADFFYSVYSGHYDYWGQGTQVTVSS | low polyreactivity |

From the nanobody polyreactivity screen of Harvey et al. (2022)
